{"source": "paper PMC3079584", "about": "“A Cytoplasmic Complex Mediates Specific mRNA Recognition and Localization in Yeast”", "molecular_target": "T1, She3p (Saccharomyces cerevisiae, UniProt P38272 1-425)", "T1 sequence": "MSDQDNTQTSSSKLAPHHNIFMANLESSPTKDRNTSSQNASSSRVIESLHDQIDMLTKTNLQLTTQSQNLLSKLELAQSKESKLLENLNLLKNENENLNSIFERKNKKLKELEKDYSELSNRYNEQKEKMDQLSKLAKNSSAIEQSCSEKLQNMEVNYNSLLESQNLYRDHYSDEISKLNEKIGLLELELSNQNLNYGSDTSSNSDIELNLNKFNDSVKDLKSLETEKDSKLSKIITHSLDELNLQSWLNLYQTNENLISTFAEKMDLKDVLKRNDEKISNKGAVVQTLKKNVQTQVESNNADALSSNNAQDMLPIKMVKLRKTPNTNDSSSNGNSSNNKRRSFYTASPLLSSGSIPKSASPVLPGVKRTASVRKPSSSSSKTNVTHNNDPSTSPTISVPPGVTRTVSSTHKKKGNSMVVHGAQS", "test": "EMSA; minimal She3p concentration for detection; EMSA: 20 mM HEPES pH 7.8, 200 mM NaCl, 2 mM MgCl2, 2 mM DTT, 4% glycerol, 30 or 100 ug/ml yeast tRNA, 5 nM RNA, 20 C; filter binding: 20 mM HEPES pH 7.4-7.5 (7.9 with She3p), 150 mM NaCl, 2 mM MgCl2, 2 mM DTT, 30 ug/ml yeast tRNA, 0.5 nM RNA; pull-down: HNMD buffer, 4 C", "settings": "protein: recombinant; tags: C-terminal His6; label: 32P; stem-loop", "data": [{"binder": "ASH1 E3-118 (structured_RNA) RNA: GAGACAGUAGAGAAUUGAUACAUGGAUAACUGAAUCUCUUUCAACUAAUAAGAGACAUUAUCACGAAACAAUUGUACAUUUCUCUCCUUGUCUGUGCUAAAUAAACUACAAAUAAAAA", "values": [{"measurement": "binding result", "value": "binds"}]}]}
